# Reference: patent publication US20140087995A1 (published 2014)
# Numbered stars: 1 amine (or outer) side, 2 acyl side, 3 side chain; on linkers, the order of the positions; unused ones are H or OH. Bridge positions count the residues as written; N and C are the ends. Side chains are listed from the residue outwards. Ends that are not written are not given here. * marks the point of attachment. C20 diacid = O=C(O)CCCCCCCCCCCCCCCCCCC(=O)*; γGlu = O=C(O)[C@H](CCC(=O)[*:2])N[*:1]; AEEA = NCCOCCOCC(=O)O
# T1: human amylin 3(a) receptor (human calcitonin receptor co-expressed with RAMP-3) (human, UniProt P30988 25-474; O60896 24-148, limits assumed)
# T1 sequence (looked up) 1: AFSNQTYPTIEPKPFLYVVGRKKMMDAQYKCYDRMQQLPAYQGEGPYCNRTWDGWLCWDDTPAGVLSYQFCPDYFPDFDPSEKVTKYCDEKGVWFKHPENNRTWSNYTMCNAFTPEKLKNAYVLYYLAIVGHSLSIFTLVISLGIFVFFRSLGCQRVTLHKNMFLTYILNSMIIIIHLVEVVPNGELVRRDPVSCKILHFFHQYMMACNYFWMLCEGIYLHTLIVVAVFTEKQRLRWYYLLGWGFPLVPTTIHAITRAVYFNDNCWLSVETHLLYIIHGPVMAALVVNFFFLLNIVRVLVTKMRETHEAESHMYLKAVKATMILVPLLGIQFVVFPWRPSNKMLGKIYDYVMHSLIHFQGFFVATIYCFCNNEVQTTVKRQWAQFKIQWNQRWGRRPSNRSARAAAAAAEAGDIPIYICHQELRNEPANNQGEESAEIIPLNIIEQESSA
# T1 sequence (looked up) 2: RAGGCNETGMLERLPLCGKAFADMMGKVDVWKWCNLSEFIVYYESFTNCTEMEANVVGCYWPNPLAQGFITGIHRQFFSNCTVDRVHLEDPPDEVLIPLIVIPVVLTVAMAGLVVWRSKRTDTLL
# Target: T1, human amylin 3(a) receptor (human …)
# Assay: cell-based or functional assay
Binder,Ratio hCT/hAmylin funct. (hCTR EC50 over hAmylin-R EC50),hAmylin-R funct. EC50 (pM)
"K([AEEA-γGlu-C20 diacid])CNTATCATQRLANFLRHSSPNFGAIPSSTPVGSNTY-NH2 (disulfide 2-7; N-terminus assumed; SMILES CC[C@H](C)[C@H](NC(=O)[C@H](C)NC(=O)CNC(=O)[C@H](Cc1ccccc1)NC(=O)[C@H](CC(N)=O)NC(=O)[C@@H]1CCCN1C(=O)[C@H](CO)NC(=O)[C@H](CO)NC(=O)[C@H](Cc1c[nH]cn1)NC(=O)[C@H](CCCNC(=N)N)NC(=O)[C@H](CC(C)C)NC(=O)[C@H](Cc1ccccc1)NC(=O)[C@H](CC(N)=O)NC(=O)[C@H](C)NC(=O)[C@H](CC(C)C)NC(=O)[C@H](CCCNC(=N)N)NC(=O)[C@H](CCC(N)=O)NC(=O)[C@@H](NC(=O)[C@H](C)NC(=O)[C@@H]1CSSC[C@H](NC(=O)[C@@H](N)CCCCNC(=O)COCCOCCNC(=O)CC[C@H](NC(=O)CCCCCCCCCCCCCCCCCCC(=O)O)C(=O)O)C(=O)N[C@@H](CC(N)=O)C(=O)N[C@@H]([C@@H](C)O)C(=O)N[C@@H](C)C(=O)N[C@@H]([C@@H](C)O)C(=O)N1)[C@@H](C)O)C(=O)N1CCC[C@H]1C(=O)N[C@@H](CO)C(=O)N[C@@H](CO)C(=O)N[C@H](C(=O)N1CCC[C@H]1C(=O)N[C@H](C(=O)NCC(=O)N[C@@H](CO)C(=O)N[C@@H](CC(N)=O)C(=O)N[C@H](C(=O)N[C@@H](Cc1ccc(O)cc1)C(N)=O)[C@@H](C)O)C(C)C)[C@@H](C)O, also called compound 49)",22.5,106
"K([AEEA-γGlu-C20 diacid])CNTATCATQRLAHFLRHSSPNFGAIPSSTNVGPNTY-NH2 (disulfide 2-7; N-terminus assumed; SMILES CC[C@H](C)[C@H](NC(=O)[C@H](C)NC(=O)CNC(=O)[C@H](Cc1ccccc1)NC(=O)[C@H](CC(N)=O)NC(=O)[C@@H]1CCCN1C(=O)[C@H](CO)NC(=O)[C@H](CO)NC(=O)[C@H](Cc1c[nH]cn1)NC(=O)[C@H](CCCNC(=N)N)NC(=O)[C@H](CC(C)C)NC(=O)[C@H](Cc1ccccc1)NC(=O)[C@H](Cc1c[nH]cn1)NC(=O)[C@H](C)NC(=O)[C@H](CC(C)C)NC(=O)[C@H](CCCNC(=N)N)NC(=O)[C@H](CCC(N)=O)NC(=O)[C@@H](NC(=O)[C@H](C)NC(=O)[C@@H]1CSSC[C@H](NC(=O)[C@@H](N)CCCCNC(=O)COCCOCCNC(=O)CC[C@H](NC(=O)CCCCCCCCCCCCCCCCCCC(=O)O)C(=O)O)C(=O)N[C@@H](CC(N)=O)C(=O)N[C@@H]([C@@H](C)O)C(=O)N[C@@H](C)C(=O)N[C@@H]([C@@H](C)O)C(=O)N1)[C@@H](C)O)C(=O)N1CCC[C@H]1C(=O)N[C@@H](CO)C(=O)N[C@@H](CO)C(=O)N[C@H](C(=O)N[C@@H](CC(N)=O)C(=O)N[C@H](C(=O)NCC(=O)N1CCC[C@H]1C(=O)N[C@@H](CC(N)=O)C(=O)N[C@H](C(=O)N[C@@H](Cc1ccc(O)cc1)C(N)=O)[C@@H](C)O)C(C)C)[C@@H](C)O, also called compound 68)",17.4,54
"K([AEEA-γGlu-C20 diacid])CNTATCATQRLAHFLRHSSPNFGAIPSSTNVGRNTY-NH2 (disulfide 2-7; N-terminus assumed; SMILES CC[C@H](C)[C@H](NC(=O)[C@H](C)NC(=O)CNC(=O)[C@H](Cc1ccccc1)NC(=O)[C@H](CC(N)=O)NC(=O)[C@@H]1CCCN1C(=O)[C@H](CO)NC(=O)[C@H](CO)NC(=O)[C@H](Cc1c[nH]cn1)NC(=O)[C@H](CCCNC(=N)N)NC(=O)[C@H](CC(C)C)NC(=O)[C@H](Cc1ccccc1)NC(=O)[C@H](Cc1c[nH]cn1)NC(=O)[C@H](C)NC(=O)[C@H](CC(C)C)NC(=O)[C@H](CCCNC(=N)N)NC(=O)[C@H](CCC(N)=O)NC(=O)[C@@H](NC(=O)[C@H](C)NC(=O)[C@@H]1CSSC[C@H](NC(=O)[C@@H](N)CCCCNC(=O)COCCOCCNC(=O)CC[C@H](NC(=O)CCCCCCCCCCCCCCCCCCC(=O)O)C(=O)O)C(=O)N[C@@H](CC(N)=O)C(=O)N[C@@H]([C@@H](C)O)C(=O)N[C@@H](C)C(=O)N[C@@H]([C@@H](C)O)C(=O)N1)[C@@H](C)O)C(=O)N1CCC[C@H]1C(=O)N[C@@H](CO)C(=O)N[C@@H](CO)C(=O)N[C@H](C(=O)N[C@@H](CC(N)=O)C(=O)N[C@H](C(=O)NCC(=O)N[C@@H](CCCNC(=N)N)C(=O)N[C@@H](CC(N)=O)C(=O)N[C@H](C(=O)N[C@@H](Cc1ccc(O)cc1)C(N)=O)[C@@H](C)O)C(C)C)[C@@H](C)O, also called compound 84)",32.5,169
"K([AEEA-γGlu-C20 diacid])CNTATCATQRLANFLRHSSPNFGAIPSSTNVGPNTY-NH2 (disulfide 2-7; N-terminus assumed; SMILES CC[C@H](C)[C@H](NC(=O)[C@H](C)NC(=O)CNC(=O)[C@H](Cc1ccccc1)NC(=O)[C@H](CC(N)=O)NC(=O)[C@@H]1CCCN1C(=O)[C@H](CO)NC(=O)[C@H](CO)NC(=O)[C@H](Cc1c[nH]cn1)NC(=O)[C@H](CCCNC(=N)N)NC(=O)[C@H](CC(C)C)NC(=O)[C@H](Cc1ccccc1)NC(=O)[C@H](CC(N)=O)NC(=O)[C@H](C)NC(=O)[C@H](CC(C)C)NC(=O)[C@H](CCCNC(=N)N)NC(=O)[C@H](CCC(N)=O)NC(=O)[C@@H](NC(=O)[C@H](C)NC(=O)[C@@H]1CSSC[C@H](NC(=O)[C@@H](N)CCCCNC(=O)COCCOCCNC(=O)CC[C@H](NC(=O)CCCCCCCCCCCCCCCCCCC(=O)O)C(=O)O)C(=O)N[C@@H](CC(N)=O)C(=O)N[C@@H]([C@@H](C)O)C(=O)N[C@@H](C)C(=O)N[C@@H]([C@@H](C)O)C(=O)N1)[C@@H](C)O)C(=O)N1CCC[C@H]1C(=O)N[C@@H](CO)C(=O)N[C@@H](CO)C(=O)N[C@H](C(=O)N[C@@H](CC(N)=O)C(=O)N[C@H](C(=O)NCC(=O)N1CCC[C@H]1C(=O)N[C@@H](CC(N)=O)C(=O)N[C@H](C(=O)N[C@@H](Cc1ccc(O)cc1)C(N)=O)[C@@H](C)O)C(C)C)[C@@H](C)O, also called compound 50)",17.4,38
"K([AEEA-γGlu-C20 diacid])CNTATCATQRLANFLRHSSPNFGAIPSSTNVGPHTY-NH2 (disulfide 2-7; N-terminus assumed; SMILES CC[C@H](C)[C@H](NC(=O)[C@H](C)NC(=O)CNC(=O)[C@H](Cc1ccccc1)NC(=O)[C@H](CC(N)=O)NC(=O)[C@@H]1CCCN1C(=O)[C@H](CO)NC(=O)[C@H](CO)NC(=O)[C@H](Cc1c[nH]cn1)NC(=O)[C@H](CCCNC(=N)N)NC(=O)[C@H](CC(C)C)NC(=O)[C@H](Cc1ccccc1)NC(=O)[C@H](CC(N)=O)NC(=O)[C@H](C)NC(=O)[C@H](CC(C)C)NC(=O)[C@H](CCCNC(=N)N)NC(=O)[C@H](CCC(N)=O)NC(=O)[C@@H](NC(=O)[C@H](C)NC(=O)[C@@H]1CSSC[C@H](NC(=O)[C@@H](N)CCCCNC(=O)COCCOCCNC(=O)CC[C@H](NC(=O)CCCCCCCCCCCCCCCCCCC(=O)O)C(=O)O)C(=O)N[C@@H](CC(N)=O)C(=O)N[C@@H]([C@@H](C)O)C(=O)N[C@@H](C)C(=O)N[C@@H]([C@@H](C)O)C(=O)N1)[C@@H](C)O)C(=O)N1CCC[C@H]1C(=O)N[C@@H](CO)C(=O)N[C@@H](CO)C(=O)N[C@H](C(=O)N[C@@H](CC(N)=O)C(=O)N[C@H](C(=O)NCC(=O)N1CCC[C@H]1C(=O)N[C@@H](Cc1c[nH]cn1)C(=O)N[C@H](C(=O)N[C@@H](Cc1ccc(O)cc1)C(N)=O)[C@@H](C)O)C(C)C)[C@@H](C)O, also called compound 58)",21.9,47
"K([AEEA-γGlu-C20 diacid])CNTATCATQRLAKFLRHSSPNFGAIPSSTPVGSNTY-NH2 (disulfide 2-7; N-terminus assumed; SMILES CC[C@H](C)[C@H](NC(=O)[C@H](C)NC(=O)CNC(=O)[C@H](Cc1ccccc1)NC(=O)[C@H](CC(N)=O)NC(=O)[C@@H]1CCCN1C(=O)[C@H](CO)NC(=O)[C@H](CO)NC(=O)[C@H](Cc1c[nH]cn1)NC(=O)[C@H](CCCNC(=N)N)NC(=O)[C@H](CC(C)C)NC(=O)[C@H](Cc1ccccc1)NC(=O)[C@H](CCCCN)NC(=O)[C@H](C)NC(=O)[C@H](CC(C)C)NC(=O)[C@H](CCCNC(=N)N)NC(=O)[C@H](CCC(N)=O)NC(=O)[C@@H](NC(=O)[C@H](C)NC(=O)[C@@H]1CSSC[C@H](NC(=O)[C@@H](N)CCCCNC(=O)COCCOCCNC(=O)CC[C@H](NC(=O)CCCCCCCCCCCCCCCCCCC(=O)O)C(=O)O)C(=O)N[C@@H](CC(N)=O)C(=O)N[C@@H]([C@@H](C)O)C(=O)N[C@@H](C)C(=O)N[C@@H]([C@@H](C)O)C(=O)N1)[C@@H](C)O)C(=O)N1CCC[C@H]1C(=O)N[C@@H](CO)C(=O)N[C@@H](CO)C(=O)N[C@H](C(=O)N1CCC[C@H]1C(=O)N[C@H](C(=O)NCC(=O)N[C@@H](CO)C(=O)N[C@@H](CC(N)=O)C(=O)N[C@H](C(=O)N[C@@H](Cc1ccc(O)cc1)C(N)=O)[C@@H](C)O)C(C)C)[C@@H](C)O, also called compound 74)",56.3,666
